{
  "source": "patent US20130189725A1",
  "about": "“HUMAN IN VITRO MODEL OF THE BLOOD CER[…] BARRIER” (RUPRECHT-KARLS-UNIVERSITAT HEIDELBERG, priority 2010, published 2013)",
  "tested_on": "HIBCPP monolayers",
  "assay": "Paracellular permeability: FITC-inulin flux through HIBCPP layers on transwell filters",
  "assay_type": "in vitro ADME, human",
  "conditions": "standard and inverted transwell filter system",
  "protocol": "HIBCPP were cultured in a 1:1 mixture of DMEM medium and HAM's F12 medium, supplemented with 4 mM L-Glutamine, 5 μg/ml insulin, penicillin (100 U/ml) and streptomycin (100 μg/ml), and 15% (v/v) heat inactivated fetal calf serum (FCS) [HIBCPP-medium with 15% (v/v) FCS]. Since HIBCPP have been described to change doubling time with increasing passages, only cells between passage 33 and 37 were used. For filter-based assays, the amounts of cells indicated in the respective experiments were seeded on the filter membrane of transwell filters (pore diameter 3.0 μm, pore density 2.0×10^6 pores per cm^2, 0.33 cm^2; Greiner Bio-one, Frickenhausen, Germany). For the standard transwell filter system, cells were seeded into the upper well of the transwell filter. Subsequently, cells were washed once each of the following two days. Medium was added to the lower well not before day two after seeding. […]\nParacellular permeability of HIBCPP monolayers was determined by measuring the passage of a FITC-inulin (Sigma, Deisenhofen, Germany) tracer solution (100 μg/ml) from the apical to the basolateral compartment of transwell filters carrying the monolayers in a Tecan Infinite M200 Multiwell reader (Tecan, Switzerland) employing Magellan V6.6 software.",
  "data": [
    {"substance": "FITC-inulin", "values": [
      {"measurement": "permeability for FITC-inulin", "setting": "after day 0, simultaneously with development of a high TEER, 15%, 1% or no serum", "value": "below 1%"},
      {"measurement": "FITC-inulin flux", "setting": "up to day 0 when TEER values are still low, tracer 100 μg/ml", "value": "≥ 3", "unit": "%"}
    ]}
  ]
}
